Experimental data taken from patent publication US20240254222A1 (Bayer, published 2024).
Blank lines part the entries; values can stand above or below the binder they belong to.

Experiments:
[1] = molecular target: T1, Human Semaphorin3A-Fc (R&D Systems), TPP-13211 (human); experiment: competition ELISA on coated TPP-13211, competitor biotinylated TPP-15370
T1 construct: R&D Systems 1250-S3; also called recombinant human Sema3A-Fc chimera
Procedure: For screening in a competition ELISA setup, human Sema3a (TPP-13211) was coated onto 384-well plates (Greiner bio-one, 781077) with a concentration of 0.5 μg/ml in coating buffer (Carbonate-Basis pH 9.6, Candor 121125) over night at 10° C. After washing the plates 3 times with 50 μl PBS 0.05% Tween the plates were blocked with 50 μl Smart Block® (Candor 113500) for 1 h at 20° C. and washed again 3 times as described.
Subsequently, 20 μl of pre-mixed antibody solution was added to the plates and incubate for 18 h at 10° C. […] The total concentration of the added antibody solution was 0.25 μg/ml. During the incubation time the antibodies bound to the plates in a competitive manner as they compete for the same epitope on the human Sema3A protein.
After subsequent washing with 50 μl PBS 0.05% Tween for 3 times, 20 μl of a Streptavidin-HRP solution (R&D Systems, DY998, 1:200 in PBS 0.05% Tween 10% Smart Block) were added and incubated for 1 h and 20° C. followed by subsequent washing 3 times with 50 μl PBS 0.05% Tween and addition of 20 μl Amplex Red solution (Invitrogen A12222, 1:1000 in NaP-buffer 50 mM pH7.6 with 1:10000 of 30% H2O2). After a final incubation for 20 min at 20° C. the signal was determined using an emission wavelength of 595 nm and excitation of 530 nm.

[2] = molecular target: T2, Rat Semaphorin3A-Sema Domain, TPP-19120 (rat, UniProt Q63548 21-569); experiment: SPR, captured antibody, Sema3A domain analyte
T2 construct: produced inhouse
T2 sequence: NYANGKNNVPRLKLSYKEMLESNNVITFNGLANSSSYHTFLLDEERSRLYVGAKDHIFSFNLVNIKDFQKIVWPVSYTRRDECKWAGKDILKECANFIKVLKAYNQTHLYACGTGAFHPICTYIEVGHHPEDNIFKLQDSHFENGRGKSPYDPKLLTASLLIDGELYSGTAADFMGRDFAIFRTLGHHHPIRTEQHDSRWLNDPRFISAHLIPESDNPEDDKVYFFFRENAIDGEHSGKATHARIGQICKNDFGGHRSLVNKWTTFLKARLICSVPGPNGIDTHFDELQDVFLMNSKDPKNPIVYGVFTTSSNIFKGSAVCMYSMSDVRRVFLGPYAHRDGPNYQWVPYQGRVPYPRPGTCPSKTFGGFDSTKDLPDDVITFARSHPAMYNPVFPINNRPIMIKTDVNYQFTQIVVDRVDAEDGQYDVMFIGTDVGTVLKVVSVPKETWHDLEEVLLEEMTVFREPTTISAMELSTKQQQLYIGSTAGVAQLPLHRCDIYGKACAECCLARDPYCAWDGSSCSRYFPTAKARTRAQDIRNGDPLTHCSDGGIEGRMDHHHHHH
In short: (§1)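 Kinetics fitted to a 1:1 Langmuir model after double referencing; glycine pH 2.0 regeneration. Sema3A domain analytes (several species) ran at […]-3.125 nM multi-cycle or single 100 nM; Fc-tagged Sema3A at 1.56-200 nM over Fab-captured antibody, otherwise Fc capture. Buffer HBS P+ plus 300 mM NaCl, CaCl₂, MgCl₂, BSA, 25° C.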

[3] = molecular target: T3, Cyno Semaphorin3A-Sema Domain, TPP-19122 (cynomolgus (Macaca fascicularis), UniProt Q63548 21-569 (rat entry), limits assumed); experiment: SPR, captured antibody, Sema3A domain analyte
T3 construct: produced inhouse
T3 chain: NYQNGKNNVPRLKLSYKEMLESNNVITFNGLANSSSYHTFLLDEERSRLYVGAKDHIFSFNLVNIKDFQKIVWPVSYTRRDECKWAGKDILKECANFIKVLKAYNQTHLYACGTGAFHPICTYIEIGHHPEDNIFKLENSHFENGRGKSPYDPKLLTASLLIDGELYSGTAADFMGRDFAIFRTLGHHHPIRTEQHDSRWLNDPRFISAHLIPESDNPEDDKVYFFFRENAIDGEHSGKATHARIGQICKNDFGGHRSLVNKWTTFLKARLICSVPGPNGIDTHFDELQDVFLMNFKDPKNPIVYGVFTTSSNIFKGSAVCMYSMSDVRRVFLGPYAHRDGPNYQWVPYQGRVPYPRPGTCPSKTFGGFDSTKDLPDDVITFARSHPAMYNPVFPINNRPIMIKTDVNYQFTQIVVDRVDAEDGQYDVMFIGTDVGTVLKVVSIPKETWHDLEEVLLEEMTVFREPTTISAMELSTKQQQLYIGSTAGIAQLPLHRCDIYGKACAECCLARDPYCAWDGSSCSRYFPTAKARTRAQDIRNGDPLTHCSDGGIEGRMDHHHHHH
In short: as §1

[4] = molecular target: T1, Human Semaphorin3A-Fc (R&D Systems), …; experiment: ELISA, coated Sema3A-Fc, antibody 0.00015-10 ug/ml
Procedure: For the assessment of binding selectivity to Sema3A vs Sema3G, 1 nM recombinant human Sema3A-Fc chimera (R&D Systems) or recombinant human GST—Sema3G (Abnova) were coated on Maxisorb plates, incubated with antibodies in a dose-response curve from 0.00015-10 μg/ml, and the binding of antibodies quantified using HRP coupled anti-human antiserum and chemiluminescent substrate.

T1 sequence (chain, as listed by the source limits assumed): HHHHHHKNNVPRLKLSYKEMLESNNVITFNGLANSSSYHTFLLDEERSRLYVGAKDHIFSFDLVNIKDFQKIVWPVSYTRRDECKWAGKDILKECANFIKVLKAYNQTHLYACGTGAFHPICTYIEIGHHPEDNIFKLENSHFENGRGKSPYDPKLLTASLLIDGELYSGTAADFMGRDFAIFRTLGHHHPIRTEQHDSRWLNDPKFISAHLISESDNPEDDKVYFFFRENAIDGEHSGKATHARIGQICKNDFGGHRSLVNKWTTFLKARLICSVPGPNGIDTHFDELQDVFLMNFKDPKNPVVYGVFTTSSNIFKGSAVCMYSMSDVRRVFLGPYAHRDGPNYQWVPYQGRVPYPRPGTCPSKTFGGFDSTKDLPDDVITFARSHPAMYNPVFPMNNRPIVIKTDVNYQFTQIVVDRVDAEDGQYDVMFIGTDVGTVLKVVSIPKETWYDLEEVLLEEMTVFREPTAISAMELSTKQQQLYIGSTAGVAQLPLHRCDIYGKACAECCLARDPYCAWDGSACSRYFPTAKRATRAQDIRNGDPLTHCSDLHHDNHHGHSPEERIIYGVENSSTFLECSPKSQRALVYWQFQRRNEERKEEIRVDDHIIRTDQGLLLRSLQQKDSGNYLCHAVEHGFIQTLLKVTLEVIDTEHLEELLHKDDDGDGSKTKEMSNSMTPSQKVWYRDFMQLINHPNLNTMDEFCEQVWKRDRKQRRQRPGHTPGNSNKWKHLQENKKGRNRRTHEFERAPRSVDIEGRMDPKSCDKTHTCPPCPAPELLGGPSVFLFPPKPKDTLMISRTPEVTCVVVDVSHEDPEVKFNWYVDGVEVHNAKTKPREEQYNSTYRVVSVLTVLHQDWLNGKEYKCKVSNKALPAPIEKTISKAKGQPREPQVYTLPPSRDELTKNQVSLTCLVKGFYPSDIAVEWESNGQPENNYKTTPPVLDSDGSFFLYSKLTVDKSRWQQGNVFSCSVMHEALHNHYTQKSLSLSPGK

B1: TPP-23337 (antibody, human IgG4 S228P, lambda, V domains shown)
VH: EVQLLESGGGLVQPGGSLRLSCAASGFTFSSYAMSWVRQAPGKGLEWVSAIGYGGDTYYADSVKGRFTISRDNSKNTLYLQMNSLRAEDTAVYYCARRDDYTSRDAFDYWGQGTLVTVSS
VL: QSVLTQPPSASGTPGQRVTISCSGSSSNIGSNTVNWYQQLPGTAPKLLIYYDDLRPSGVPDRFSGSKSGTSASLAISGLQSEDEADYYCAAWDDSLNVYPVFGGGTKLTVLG
- VAL norm to TPP-9809 (1 to 1 ratio) [1]: 0.27
- VAL norm to TPP-9809 (1 to 5 ratio) [1]: 0.14
- Kd [2]: 0.11 nM
- Kd [3]: 0.026 nM
- EC50 [4]: 15.5 nM

B4: TPP-23334 (antibody, human IgG4 S228P, lambda, V domains shown)
VH: EVQLLESGGGLVQPGGSLRLSCAASGFTFSSYAMSWVRQAPGKGLEWVSAIGYGGDTYYADSVKGRFTISRDNSKNTLYLQMNSLRAEDTAVYYCARRDDYTSRDAFDYWGQGTLVTVSS
VL: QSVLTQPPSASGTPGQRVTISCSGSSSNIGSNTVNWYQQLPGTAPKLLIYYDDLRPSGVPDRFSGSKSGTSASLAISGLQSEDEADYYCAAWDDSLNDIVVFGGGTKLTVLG
- VAL norm to TPP-9809 (1 to 1 ratio) [1]: 0.28
- VAL norm to TPP-9809 (1 to 5 ratio) [1]: 0.11
- Kd [2]: 0.056 nM
- Kd [3]: 0.015 nM
- EC50 [4]: 9.2 nM

These reach a lower Kd [2]. Values come first.

- VAL norm to TPP-9809 (1 to 1 ratio) [1]: 0.18
- VAL norm to TPP-9809 (1 to 5 ratio) [1]: 0.09
- Kd [2]: 0.03 nM
- Kd [3]: 0.078 nM
- EC50 [4]: 1.6 nM
B2: TPP-23298 (antibody, human IgG4 S228P, lambda, V domains shown)
VH: EVQLLESGGGLVQPGGSLRLSCAASGFTFYSYAMSWVRQAPGKGLEWVSAIGTGGDTYYADSVKGRFTISRDNSKNTLYLQMNSLRAEDTAVYYCARRDDYTSRDAFDYWGQGTLVTVSS
VL: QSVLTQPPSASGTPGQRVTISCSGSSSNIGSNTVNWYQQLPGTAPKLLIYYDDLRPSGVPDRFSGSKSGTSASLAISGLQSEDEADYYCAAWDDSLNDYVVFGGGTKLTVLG

- VAL norm to TPP-9809 (1 to 1 ratio) [1]: 0.19
- VAL norm to TPP-9809 (1 to 5 ratio) [1]: 0.08
- Kd [2]: 0.0033 nM
- Kd [3]: < 0.003 nM
- EC50 [4]: 6.1 nM
B3: TPP-23374 (antibody, human IgG4 S228P, lambda, V domains shown)
VH: EVQLLESGGGLVQPGGSLRLSCAASGFTFYSYAMSWVRQAPGKGLEWVSAIGYGGDTYYADSVKGRFTISRDNSKNTLYLQMNSLRAEDTAVYYCARRDDYTSRDAFDYWGQGTLVTVSS
VL: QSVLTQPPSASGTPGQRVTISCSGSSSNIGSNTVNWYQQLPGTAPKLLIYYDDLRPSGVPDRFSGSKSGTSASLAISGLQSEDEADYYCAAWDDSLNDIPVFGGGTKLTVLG
